From publication PMC9352680, “A comprehensive thermodynamic model for RNA binding by the Saccharomyces cerevisiae Pumilio protein PUF4”

T1: PUF4 RNA-binding domain (Saccharomyces cerevisiae, UniProt P25339 537-888)
T1 sequence: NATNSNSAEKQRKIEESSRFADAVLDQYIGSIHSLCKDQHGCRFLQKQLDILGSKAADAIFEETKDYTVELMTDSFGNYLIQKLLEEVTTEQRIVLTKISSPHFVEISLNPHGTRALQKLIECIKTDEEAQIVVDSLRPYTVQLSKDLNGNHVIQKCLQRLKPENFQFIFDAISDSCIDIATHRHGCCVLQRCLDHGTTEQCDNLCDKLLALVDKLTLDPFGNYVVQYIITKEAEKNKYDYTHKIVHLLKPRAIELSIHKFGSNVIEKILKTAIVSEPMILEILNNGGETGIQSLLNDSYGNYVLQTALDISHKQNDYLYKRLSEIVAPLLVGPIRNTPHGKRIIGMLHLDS


Biological target: T1, PUF4 RNA-binding domain
Experiment: Mg; RNA-MaP; 20 mM Na-HEPES pH 7.4, 30 mM KOAc, 0.75 mM MgCl2, 0.1% Tween-20, 5% glycerol, 0.1 mg/mL BSA, 2 mM DTT; 25 C; 0.0125-409.6 nM protein
Conditions: tags: N-His6-TEV cleaved; C-SNAP kept, Cy3B-labelled; label: tethered on chip by stalled RNA polymerase

Binder	Kd [nM]
Ib_S2_P4E.1_K4.1_C4.1_H4.1_[T1A]_A4.1_[T5A]_F4.1_T4.1 (ssRNA) RNA: UUUGAUUAAUAUGAUAUCGUUCUUUCUAGUAAAUUAUUCUUUCUCGAUAUCAUAUUAAUCUUU	657
Ib_S2_P4E.1_K4.1_C4.1_H4.1_[A4T]_A4.1_[T7C]_F4.1_T4.1 (ssRNA) RNA: UUUGAUUAAUAUGAUAUCGUUCUUUCUUGUUUACUAUUCUUUCUCGAUAUCAUAUUAAUCUUU	6.89
Ib_S2_P4E.1_K4.1_C4.1_H4.1_[T3C]_A4.1_[T5C]_F4.1_T4.1 (ssRNA) RNA: UUUGAUUAAUAUGAUAUCGUUCUUUCUUGCACAUUAUUCUUUCUCGAUAUCAUAUUAAUCUUU	14.6
Ib_S2_P4E.1_K4.1_C4.1_H4.1_[T1A]_A4.1_[T7G]_F4.1_T4.1 (ssRNA) RNA: UUUGAUUAAUAUGAUAUCGUUCUUUCUAGUAUAGUAUUCUUUCUCGAUAUCAUAUUAAUCUUU	550
Ic_S2_P4E.1_K4.1_C4.1_H4.1_A4.1_[T5A]_[A6T]_F4.1_T4.1 (ssRNA) RNA: UUUGAUUAAUAUGAUAUCGUUCUUUCUUGUAAUUUAUUCUUUCUCGAUAUCAUAUUAAUCUUU	2.07
Ib_S2_P4E.1_K4.1_C4.1_H4.1_A4.1_[T5C]_[A6C]_F4.1_T4.1 (ssRNA) RNA: UUUGAUUAAUAUGAUAUCGUUCUUUCUUGUACCUUAUUCUUUCUCGAUAUCAUAUUAAUCUUU	0.902
Ib_S2_P4E.1_K4.1_C4.1_H4.1_[T1A]_A4.1_[A6T]_F4.1_T4.1 (ssRNA) RNA: UUUGAUUAAUAUGAUAUCGUUCUUUCUAGUAUUUUAUUCUUUCUCGAUAUCAUAUUAAUCUUU	739
Ib_S2_P4E.1_K4.1_C4.1_H4.1_[T1C]_A4.1_[A6T]_F4.1_T4.1 (ssRNA) RNA: UUUGAUUAAUAUGAUAUCGUUCUUUCUCGUAUUUUAUUCUUUCUCGAUAUCAUAUUAAUCUUU	126
Ib_S2_P4E.1_K4.1_C4.1_H4.1_[A4C]_A4.1_[A6T]_F4.1_T4.1 (ssRNA) RNA: UUUGAUUAAUAUGAUAUCGUUCUUUCUUGUCUUUUAUUCUUUCUCGAUAUCAUAUUAAUCUUU	28.6
Ib_S2_P4E.1_K4.1_C4.1_H4.1_[G2A]_A4.1_[T7G]_F4.1_T4.1 (ssRNA) RNA: UUUGAUUAAUAUGAUAUCGUUCUUUCUUAUAUAGUAUUCUUUCUCGAUAUCAUAUUAAUCUUU	80.2
Ic_S2_P4E.1_K4.1_C4.1_H4.1_A4.1_[T5A]_F4.1_T4.1 (ssRNA) RNA: UUUGAUUAAUAUGAUAUCGUUCUUUCUUGUAAAUUAUUCUUUCUCGAUAUCAUAUUAAUCUUU	0.874
Ib_S2_P4E.1_K4.1_C4.1_H4.1_[T3C]_A4.1_[A6G]_F4.1_T4.1 (ssRNA) RNA: UUUGAUUAAUAUGAUAUCGUUCUUUCUUGCAUGUUAUUCUUUCUCGAUAUCAUAUUAAUCUUU	777
Ib_S2_P4E.1_K4.1_C4.1_H4.1_[T1G]_A4.1_[T7A]_F4.1_T4.1 (ssRNA) RNA: UUUGAUUAAUAUGAUAUCGUUCUUUCUGGUAUAAUAUUCUUUCUCGAUAUCAUAUUAAUCUUU	303
Ib_S2_P4E.1_K4.1_C4.1_H4.1_[G2A]_A4.1_[A6C]_F4.1_T4.1 (ssRNA) RNA: UUUGAUUAAUAUGAUAUCGUUCUUUCUUAUAUCUUAUUCUUUCUCGAUAUCAUAUUAAUCUUU	154
Ib_S2_P4E.1_K4.1_C4.1_H4.1_[A4C]_A4.1_[T7G]_F4.1_T4.1 (ssRNA) RNA: UUUGAUUAAUAUGAUAUCGUUCUUUCUUGUCUAGUAUUCUUUCUCGAUAUCAUAUUAAUCUUU	50.2
Ib_S2_P4E.1_K4.1_C4.1_H4.1_[T3C]_A4.1_[T7G]_F4.1_T4.1 (ssRNA) RNA: UUUGAUUAAUAUGAUAUCGUUCUUUCUUGCAUAGUAUUCUUUCUCGAUAUCAUAUUAAUCUUU	616
Ib_S2_P4E.1_K4.1_C4.1_H4.1_[T3C]_A4.1_[A6C]_F4.1_T4.1 (ssRNA) RNA: UUUGAUUAAUAUGAUAUCGUUCUUUCUUGCAUCUUAUUCUUUCUCGAUAUCAUAUUAAUCUUU	1010
Ib_S2_P4E.1_K4.1_C4.1_H4.1_[A4G]_A4.1_[T7C]_F4.1_T4.1 (ssRNA) RNA: UUUGAUUAAUAUGAUAUCGUUCUUUCUUGUGUACUAUUCUUUCUCGAUAUCAUAUUAAUCUUU	1.04
Ib_S2_P4E.1_K4.1_C4.1_H4.1_[A4C]_A4.1_[T7C]_F4.1_T4.1 (ssRNA) RNA: UUUGAUUAAUAUGAUAUCGUUCUUUCUUGUCUACUAUUCUUUCUCGAUAUCAUAUUAAUCUUU	6.04
Ib_S2_P4E.1_K4.1_C4.1_H4.1_[G2T]_A4.1_[A6G]_F4.1_T4.1 (ssRNA) RNA: UUUGAUUAAUAUGAUAUCGUUCUUUCUUUUAUGUUAUUCUUUCUCGAUAUCAUAUUAAUCUUU	> 2300
Ib_S2_P4E.1_K4.1_C4.1_H4.1_[A4C]_A4.1_[T7A]_F4.1_T4.1 (ssRNA) RNA: UUUGAUUAAUAUGAUAUCGUUCUUUCUUGUCUAAUAUUCUUUCUCGAUAUCAUAUUAAUCUUU	16
Ib_S2_P4E.1_K4.1_C4.1_H4.1_A4.1_[T5G]_[A6T]_F4.1_T4.1 (ssRNA) RNA: UUUGAUUAAUAUGAUAUCGUUCUUUCUUGUAGUUUAUUCUUUCUCGAUAUCAUAUUAAUCUUU	2.75

Binder	Kd [nM]
Ib_S2_P4E.1_K4.1_C4.1_H4.1_[A4T]_A4.1_[A6C]_F4.1_T4.1 (ssRNA) RNA: UUUGAUUAAUAUGAUAUCGUUCUUUCUUGUUUCUUAUUCUUUCUCGAUAUCAUAUUAAUCUUU	23.1
Ib_S2_P4E.1_K4.1_C4.1_H4.1_[A4G]_A4.1_[A6T]_F4.1_T4.1 (ssRNA) RNA: UUUGAUUAAUAUGAUAUCGUUCUUUCUUGUGUUUUAUUCUUUCUCGAUAUCAUAUUAAUCUUU	4.38
Ib_S2_P4E.1_K4.1_C4.1_H4.1_[G2C]_A4.1_[A6G]_F4.1_T4.1 (ssRNA) RNA: UUUGAUUAAUAUGAUAUCGUUCUUUCUUCUAUGUUAUUCUUUCUCGAUAUCAUAUUAAUCUUU	1150
Ib_S2_P4E.1_K4.1_C4.1_H4.1_[A4G]_A4.1_[T7A]_F4.1_T4.1 (ssRNA) RNA: UUUGAUUAAUAUGAUAUCGUUCUUUCUUGUGUAAUAUUCUUUCUCGAUAUCAUAUUAAUCUUU	5.79
Ib_S2_P4E.1_K4.1_C4.1_H4.1_[A4G]_A4.1_[A6C]_F4.1_T4.1 (ssRNA) RNA: UUUGAUUAAUAUGAUAUCGUUCUUUCUUGUGUCUUAUUCUUUCUCGAUAUCAUAUUAAUCUUU	8.2
Ib_S2_P4E.1_K4.1_C4.1_H4.1_[T1C]_A4.1_[A6G]_F4.1_T4.1 (ssRNA) RNA: UUUGAUUAAUAUGAUAUCGUUCUUUCUCGUAUGUUAUUCUUUCUCGAUAUCAUAUUAAUCUUU	795
Ib_S2_P4E.1_K4.1_C4.1_H4.1_[A4T]_A4.1_[A6G]_F4.1_T4.1 (ssRNA) RNA: UUUGAUUAAUAUGAUAUCGUUCUUUCUUGUUUGUUAUUCUUUCUCGAUAUCAUAUUAAUCUUU	55.4
Ib_S2_P4E.1_K4.1_C4.1_H4.1_[G2T]_A4.1_[A6C]_F4.1_T4.1 (ssRNA) RNA: UUUGAUUAAUAUGAUAUCGUUCUUUCUUUUAUCUUAUUCUUUCUCGAUAUCAUAUUAAUCUUU	> 2300
Ia_S2_P4E.1_K4.1_C4.1_H4.1_[A4T]_A4.1_F4.1_T4.1 (ssRNA) RNA: UUUGAUUAAUAUGAUAUCGUUCUUUCUUGUUUAUUAUUCUUUCUCGAUAUCAUAUUAAUCUUU	4.39
Ib_S2_P4E.1_K4.1_C4.1_H4.1_[T1G]_A4.1_[A6T]_F4.1_T4.1 (ssRNA) RNA: UUUGAUUAAUAUGAUAUCGUUCUUUCUGGUAUUUUAUUCUUUCUCGAUAUCAUAUUAAUCUUU	497
Ib_S2_P4E.1_K4.1_C4.1_H4.1_A4.1_[T5C]_[A6T]_F4.1_T4.1 (ssRNA) RNA: UUUGAUUAAUAUGAUAUCGUUCUUUCUUGUACUUUAUUCUUUCUCGAUAUCAUAUUAAUCUUU	0.795
Ia_S2_P4E.1_K4.1_C4.1_H4.1_[A4C]_A4.1_F4.1_T4.1 (ssRNA) RNA: UUUGAUUAAUAUGAUAUCGUUCUUUCUUGUCUAUUAUUCUUUCUCGAUAUCAUAUUAAUCUUU	4.11
Ib_S2_P4E.1_K4.1_C4.1_H4.1_[G2T]_A4.1_[T5A]_F4.1_T4.1 (ssRNA) RNA: UUUGAUUAAUAUGAUAUCGUUCUUUCUUUUAAAUUAUUCUUUCUCGAUAUCAUAUUAAUCUUU	1900
Ib_S2_P4E.1_K4.1_C4.1_H4.1_[G2C]_A4.1_[T7C]_F4.1_T4.1 (ssRNA) RNA: UUUGAUUAAUAUGAUAUCGUUCUUUCUUCUAUACUAUUCUUUCUCGAUAUCAUAUUAAUCUUU	190
Ib_S2_P4E.1_K4.1_C4.1_H4.1_A4.1_[T5A]_[A6C]_F4.1_T4.1 (ssRNA) RNA: UUUGAUUAAUAUGAUAUCGUUCUUUCUUGUAACUUAUUCUUUCUCGAUAUCAUAUUAAUCUUU	2.62
Ib_S2_P4E.1_K4.1_C4.1_H4.1_[A4G]_A4.1_[T7G]_F4.1_T4.1 (ssRNA) RNA: UUUGAUUAAUAUGAUAUCGUUCUUUCUUGUGUAGUAUUCUUUCUCGAUAUCAUAUUAAUCUUU	5.12
Ib_S2_P4E.1_K4.1_C4.1_H4.1_A4.1_[T5C]_[T7G]_F4.1_T4.1 (ssRNA) RNA: UUUGAUUAAUAUGAUAUCGUUCUUUCUUGUACAGUAUUCUUUCUCGAUAUCAUAUUAAUCUUU	0.884
Ib_S2_P4E.1_K4.1_C4.1_H4.1_[G2T]_A4.1_[A6T]_F4.1_T4.1 (ssRNA) RNA: UUUGAUUAAUAUGAUAUCGUUCUUUCUUUUAUUUUAUUCUUUCUCGAUAUCAUAUUAAUCUUU	1390
Ib_S2_P4E.1_K4.1_C4.1_H4.1_[T1C]_A4.1_[T7G]_F4.1_T4.1 (ssRNA) RNA: UUUGAUUAAUAUGAUAUCGUUCUUUCUCGUAUAGUAUUCUUUCUCGAUAUCAUAUUAAUCUUU	132
Ib_S2_P4E.1_K4.1_C4.1_H4.1_[A4T]_A4.1_[T7G]_F4.1_T4.1 (ssRNA) RNA: UUUGAUUAAUAUGAUAUCGUUCUUUCUUGUUUAGUAUUCUUUCUCGAUAUCAUAUUAAUCUUU	30.8
UCUCUUAGUAUAUAUCUCUU (ssRNA) [Ia_S1_P3E.1_K3.1_C3.1_H3.1_[T1A]_A3.1_F3.1_T3.1]	742
